In patent publication US12269859B2, “Synthetic immune receptors and methods of use thereof” (Angeles Therapeutics, Inc., priority 2016, dated 2025):

Test system: target antigen-expressing cell line
Assay: Jurkat NFAT-GFP assay, coculture with target cell lines expressing the respective target antigen (summary Table 10A)
Format: cell-based, human
Set-up: key: The signs +/−, +, 2+ etc. after the name of the cell lines indicate the relative degree of positivity on the Jurkat-NFAT-GFP assay as measured by the % GFP positive cells; +: relative degree of positivity on the Jurkat-NFAT-GFP assay as measured by the % GFP positive cells; 2+: relative degree of positivity on the Jurkat-NFAT-GFP assay as measured by the % GFP positive cells
Conditions: relative % GFP positive cells; for NFAT-GFP ASSAY Positive Cell lines: L363: SIR-expressing Jurkat-NFAT-GFP cells cocultured with L363; for NFAT-GFP ASSAY Positive Cell lines: U266: SIR-expressing Jurkat-NFAT-GFP cells cocultured with U266; for NFAT-GFP ASSAY Positive Cell lines: RAJI: SIR-expressing Jurkat-NFAT-GFP cells cocultured with RAJI; for NFAT-GFP ASSAY Positive Cell lines: Bv173: SIR-expressing Jurkat-NFAT-GFP cells cocultured with Bv173
Procedure, shortened: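 Positivity is scored when SIR-expressing reporter Jurkat cells show more GFP-positive cells than parental controls after coculture with the antigen-bearing line. Effector-to-target ratio is about 1:2, coculture lasts roughly 4–18 hours, and GFP is quantified by FACS.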

Molecule	NFAT-GFP ASSAY Positive Cell lines: L363	NFAT-GFP ASSAY Positive Cell lines: U266	NFAT-GFP ASSAY Positive Cell lines: RAJI	NFAT-GFP ASSAY Positive Cell lines: Bv173	also measured
031517-S02 (protein) MALPVTALLLPLALLLHAARPLEGKPIPNPLLGLDSTGSGEDLKNVFPPEVAVFEPSKAEIAHTQKATLVCLATGFYPDHVELSWWVNGKEVHSGVCTDPQPLKEQPALNDSRYCLSSRLRVSATFWQNPRNHFRCQVQFYGLSENDEWTQDRAKPVTQIVSAEAWGRADCGITSASYHQGVLSATILYEILLGKATLYAVLVSALVLMAMVKRKDSRGRAKRSGSGATNFSLLKQAGDVEENPGPTSMALPVTALLLPLALLLHAARPDIVLTQSPASLAVSLGERATINCRASESVSVIGAHLIHWYQQKPGQPPKLLIYLASNLETGVPARFSGSGSGTDFTLTISSLQAEDAAIYYCLQSRIFPRTFGQGTKLEIKGGGGSGGGGSGGGGSQVQLVQSGSELKKPGESVKISCKASGYTFTDYSINWVKQAPGQGLKWMGWINTETREPAYAYDFRGRFVFSLDTSASTAYLQISSLKAEDTAVYFCALDYSYAMDYWGQGTLVTVSSTREQKLISEEDGSGIQNPDPAVYQLRDSKSSDKSVCLFTDFDSQTNVSQSKDSDVYITDKCVLDMRSMDFKSNSAVAWSNKSDFACANAFNNSIIPEDTFFPSSDVPCDVKLVEKSFETDTNLNFQNLSVIGFRILLLKVAGFNLLMTLRLWSSRAKRSGSGVKQTLNFDLLKLAGDVESNPGPSRGHMTEYKPTVRLATRDDVPRAVRTLAAAFADYPATRHTVDPDRHIERVTELQELFLTRVGLDIGKVWVADDGAAVAVWTTPESVEAGAVFAEIGPRMAELSGSRLAAQQQMEGLLAPHRPKEPAWFLATVGVSPDHQGKGLGSAVVLPGVEAAERAGVPAFLETSAPRNLPFYERLGFTVTADVEVPEGPRTWCMTRKPGA	L363 (+/−), U266	(+/−)	–	–	–
031517-T06 (protein) MALPVTALLLPLALLLHAARPLEGKPIPNPLLGLDSTGSGEDLKNVFPPEVAVFEPSKAEIAHTQKATLVCLATGFYPDHVELSWWVNGKEVHSGVCTDPQPLKEQPALNDSRYCLSSRLRVSATFWQNPRNHFRCQVQFYGLSENDEWTQDRAKPVTQIVSAEAWGRADCGITSASYHQGVLSATILYEILLGKATLYAVLVSALVLMAMVKRKDSRGRAKRSGSGATNFSLLKQAGDVEENPGPTSMALPVTALLLPLALLLHAARPDIVLTQSPATLSLSPGDRATLSCRASESVTILGSHLIYWYQQKPGQAPRLLIQLASNVQTGIPARFSGSGSRTDFTLTISSLEPEDFAVYYCLQSRTIPRTFGQGTKLEIKRGGGGSGGGGSGGGGSQVQLVQSGSELKKPGESVKISCKASGYTFTHYSMNWVRQAPGQGLEWMGRINTETGEPLYADDFKGRFVFSLDTSASTAYLQISSLKAEDTAVYYCSNDYLYSLDYWGQGTLVTVSSTREQKLISEEDGSGIQNPDPAVYQLRDSKSSDKSVCLFTDFDSQTNVSQSKDSDVYITDKCVLDMRSMDFKSNSAVAWSNKSDFACANAFNNSIIPEDTFFPSSDVPCDVKLVEKSFETDTNLNFQNLSVIGFRILLLKVAGFNLLMTLRLWSSRAKRSGSGVKQTLNFDLLKLAGDVESNPGPSRGHMTEYKPTVRLATRDDVPRAVRTLAAAFADYPATRHTVDPDRHIERVTELQELFLTRVGLDIGKVWVADDGAAVAVWTTPESVEAGAVFAEIGPRMAELSGSRLAAQQQMEGLLAPHRPKEPAWFLATVGVSPDHQGKGLGSAVVLPGVEAAERAGVPAFLETSAPRNLPFYERLGFTVTADVEVPEGPRTWCMTRKPGA	L363 (+/−), U266	(+/−)	–	–	–
110116-G04 (protein, Synthetic Immune Receptor (SIR)) MALPVTALLLPLALLLHAARPLEQKLISEEDLGSGDRPDPAVYQLRDSKSSDKSVCLFTDFDSQTNVSQSKDSDVYITDKCVLDMRSMDFKSNSAVAWSNKSDFACANAFNNSIIPEDTFFPSPESSCDVKLVEKSFETDTNLNFQNLSVIGFRILLLKVAGFNLLMTLRLWSSSSRAKRSGSGVKQTLNFDLLKLAGDVESNPGPTSTMALPVTALLLPLALLLHAARPDIVMTQTPLTLSVTIGQPASISCKSSQSLLDSDGKTYLNWLLQRPGQSPERLIYLVSKLDSGVPDRFTGSGSGTDFTLKISRVEAEDLGVYCCWQGTHFPYTFGGGTKVEIKGGGGGSGGGGSGGGGSQVQLQQPGAELVRPGASVKLSCKASGYTFTSYWMNWVKQRPGQGLEWIGMIDPSDSETHYNHIFKDKATLTVDKSSSTAYLQLSSLTSEDSAVYYCARNLYLWGQGTSVTVSSTRGKPIPNPLLGLDSTGSGEDLKNVFPPEVAVFEPSEAEISHTQKATLVCLATGFYPDHVELSWWVNGKEVHSGVCTDPQPLKEQPALNDSRYCLSSRLRVSATFWQNPRNHFRCQVQFYGLSENDEWTQDRAKPVTQIVSAEAWGRADCGFTSESYQQGVLSATILYEILLGKATLYAVLVSALVLMAMVKRKDSRGRAKRSGSGATNFSLLKQAGDVEENPGPSRGHMTEYKPTVRLATRDDVPRAVRTLAAAFADYPATRHTVDPDRHIERVTELQELFLTRVGLDIGKVWVADDGAAVAVWTTPESVEAGAVFAEIGPRMAELSGSRLAAQQQMEGLLAPHRPKEPAWFLATVGVSPDHQGKGLGSAVVLPGVEAAERAGVPAFLETSAPRNLPFYERLGFTVTADVEVPEGPRTWCMTRKPGA	–	–	RAJI (+/−)	–	–
090116-G02 (protein, Synthetic Immune Receptor (SIR)) MALPVTALLLPLALLLHAARPLEGKPIPNPLLGLDSTGSGEDLKNVFPPEVAVFEPSKAEIAHTQKATLVCLATGFYPDHVELSWWVNGKEVHSGVCTDPQPLKEQPALNDSRYCLSSRLRVSATFWQNPRNHFRCQVQFYGLSENDEWTQDRAKPVTQIVSAEAWGRADCGITSASYHQGVLSATILYEILLGKATLYAVLVSALVLMAMVKRKDSRGRAKRSGSGATNFSLLKQAGDVEENPGPTSTMALPVTALLLPLALLLHAARPDIVMTQTPLTLSVTIGQPASISCKSSQSLLDSDGKTYLNWLLQRPGQSPERLIYLVSKLDSGVPDRFTGSGSGTDFTLKISRVEAEDLGVYCCWQGTHFPYTFGGGTKVEIKGGGGGSGGGGSGGGGSQVQLQQPGAELVRPGASVKLSCKASGYTFTSYWMNWVKQRPGQGLEWIGMIDPSDSETHYNHIFKDKATLTVDKSSSTAYLQLSSLTSEDSAVYYCARNLYLWGQGTSVTVSSTREQKLISEEDGSGIQNPDPAVYQLRDSKSSDKSVCLFTDFDSQTNVSQSKDSDVYITDKCVLDMRSMDFKSNSAVAWSNKSDFACANAFNNSIIPEDTFFPSSDVPCDVKLVEKSFETDTNLNFQNLSVIGFRILLLKVAGFNLLMTLRLWSSRAKRSGSGVKQTLNFDLLKLAGDVESNPGPSRGHMTEYKPTVRLATRDDVPRAVRTLAAAFADYPATRHTVDPDRHIERVTELQELFLTRVGLDIGKVWVADDGAAVAVWTTPESVEAGAVFAEIGPRMAELSGSRLAAQQQMEGLLAPHRPKEPAWFLATVGVSPDHQGKGLGSAVVLPGVEAAERAGVPAFLETSAPRNLPFYERLGFTVTADVEVPEGPRTWCMTRKPGA	–	–	RAJI (+)	–	–
111215-J02 (protein, Synthetic Immune Receptor (SIR)) MDWIWRILFLVGAATGAHSFEVQLVESGGGSVQAGGSLRLSCTTSGRALNMYVMGWFRQAPGNEREFVAATSSSGGSTSYPDSVKGRFTISRDNAKNTVYLQMNSLKPEDTAAYRCAASPYVSTPTMNILEEYRYWGLGTQVTVSSLEGKPIPNPLLGLDSTGSGEDLKNVFPPEVAVFEPSEAEISHTQKATLVCLATGFYPDHVELSWWVNGKEVHSGVCTDPQPLKEQPALNDSRYCLSSRLRVSATFWQNPRNHFRCQVQFYGLSENDEWTQDRAKPVTQIVSAEAWGRADCGFTSESYQQGVLSATILYEILLGKATLYAVLVSALVLMAMVKRKDSRGRAKRSGSGATNFSLLKQAGDVEENPGPTSMDWIWRILFLVGAATGAHSFEVQLVESGGGLVQAGGSLRLSCAASGSIFSGNVMGWYRRQAPGKEREWVAAIASGGSIYYRDSVKGRFTISRDNAKNTVYLQMNSLKPEDTAVYYCNSHPPTLPYWGLGTQVTVSSTREQKLISEEDGSGIQNPDPAVYQLRDSKSSDKSVCLFTDFDSQTNVSQSKDSDVYITDKCVLDMRSMDFKSNSAVAWSNKSDFACANAFNNSIIPEDTFFPSPESSCDVKLVEKSFETDTNLNFQNLSVIGFRILLLKVAGFNLLMTLRLWSSRAKRSGSGVKQTLNFDLLKLAGDVESNPGPSRGHMTEYKPTVRLATRDDVPRAVRTLAAAFADYPATRHTVDPDRHIERVTELQELFLTRVGLDIGKVWVADDGAAVAVWTTPESVEAGAVFAEIGPRMAELSGSRLAAQQQMEGLLAPHRPKEPAWFLATVGVSPDHQGKGLGSAVVLPGVEAAERAGVPAFLETSAPRNLPFYERLGFTVTADVEVPEGPRTWCMTRKPGA	–	–	–	(+)	NFAT-GFP ASSAY Positive Cell lines: MOLM13 (SIR-expressing Jurkat-NFAT-GFP cells cocultured with MOLM13): MOLM13 (+), Bv173
111215-K06 (protein, Synthetic Immune Receptor (SIR)) MDWIWRILFLVGAATGAHSFEVQLVESGGGSVQAGGSLRLSCTTSGRALNMYVMGWFRQAPGNEREFVAATSSSGGSTSYPDSVKGRFTISRDNAKNTVYLQMNSLKPEDTAAYRCAASPYVSTPTMNILEEYRYWGLGTQVTVSSLEGKPIPNPLLGLDSTGSGEDLKNVFPPEVAVFEPSKAEIAHTQKATLVCLATGFYPDHVELSWWVNGKEVHSGVCTDPQPLKEQPALNDSRYCLSSRLRVSATFWQNPRNHFRCQVQFYGLSENDEWTQDRAKPVTQIVSAEAWGRADCGITSASYHQGVLSATILYEILLGKATLYAVLVSALVLMAMVKRKDSRGRAKRSGSGATNFSLLKQAGDVEENPGPTSMDWIWRILFLVGAATGAHSFEVQLVESGGGLVQAGGSLRLSCAASGSIFSGNVMGWYRRQAPGKEREWVAAIASGGSIYYRDSVKGRFTISRDNAKNTVYLQMNSLKPEDTAVYYCNSHPPTLPYWGLGTQVTVSSTREQKLISEEDGSGIQNPDPAVYQLRDSKSSDKSVCLFTDFDSQTNVSQSKDSDVYITDKCVLDMRSMDFKSNSAVAWSNKSDFACANAFNNSIIPEDTFFPSSDVPCDVKLVEKSFETDTNLNFQNLSVIGFRILLLKVAGFNLLMTLRLWSSRAKRSGSGVKQTLNFDLLKLAGDVESNPGPSRGHMTEYKPTVRLATRDDVPRAVRTLAAAFADYPATRHTVDPDRHIERVTELQELFLTRVGLDIGKVWVADDGAAVAVWTTPESVEAGAVFAEIGPRMAELSGSRLAAQQQMEGLLAPHRPKEPAWFLATVGVSPDHQGKGLGSAVVLPGVEAAERAGVPAFLETSAPRNLPFYERLGFTVTADVEVPEGPRTWCMTRKPGA	–	–	–	Bv173 (+), THP1	NFAT-GFP ASSAY Positive Cell lines: THP1 (SIR-expressing Jurkat-NFAT-GFP cells cocultured with THP1): (+),
